Assay results taken from patent US20260217793A1 (Chugai, published 2026).
Changes are numbered by the printed parent chain.

T1: FcγRIIa type R extracellular domain with C-terminal His tag (human, UniProt P12318 34-217)
T1 sequence (looked up): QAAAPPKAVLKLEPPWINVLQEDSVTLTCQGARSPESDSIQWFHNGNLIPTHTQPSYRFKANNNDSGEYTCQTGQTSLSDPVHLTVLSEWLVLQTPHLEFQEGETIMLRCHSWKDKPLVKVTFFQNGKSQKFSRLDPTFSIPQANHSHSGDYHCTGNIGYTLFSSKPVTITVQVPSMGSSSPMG

T2: FcγRIIb extracellular domain with C-terminal His tag (human, UniProt P31994 43-217)
T2 sequence (looked up): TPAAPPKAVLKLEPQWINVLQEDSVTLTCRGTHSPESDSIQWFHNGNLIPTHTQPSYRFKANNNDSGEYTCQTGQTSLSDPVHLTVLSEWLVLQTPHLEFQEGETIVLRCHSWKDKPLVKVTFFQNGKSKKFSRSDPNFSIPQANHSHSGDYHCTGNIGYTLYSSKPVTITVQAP

T3: human FcγRIIa type R (Arg131) extracellular domain with C-terminal His tag (human, UniProt P12318 34-217)
T3 sequence (looked up): T1 sequence (looked up)

T4: human FcγRIIb extracellular domain with C-terminal His tag (human, UniProt P31994 43-217)
T4 sequence (looked up): T2 sequence (looked up)

B1: IL6R-BP262/IL6R-L (antibody, human IgG1, kappa)
heavy: QVQLQESGPGLVKPSETLSLTCAVSGHSISHDHAWSWVRQPPGEGLEWIGFISYSGITNYNPSLQGRVTISRDNSKNTLYLQMNSLRAEDTAVYYCARSLARTTAMDYWGEGTLVTVSSASTKGPSVFPLAPSSKSTSGGTAALGCLVKDYFPEPVTVSWNSGALTSGVHTFPAVLQSSGLYSLSSVVTVPSSSLGTQTYICNVNHKPSNTKVDKKVEPKSCDKTHTCPPCPAPELLGDDSVFLFPPKPKDTLMISRTPEVTCVVVDVSEEDGEVKFNWYVDGVEVHNAKTKPREEQYNSTYRVVSVLTVLHQDWLNGKEYKCKVSNKALPAPIEKTISKAKGQPREPQVYTLPPSRDELTKNQVSLTCLVKGFYPSDIAVEWESNGQPENNYKTTPPVLDSDGSFFLYSKLTVDKSRWQQGNVFSCSVMHEALHNHYTQESLSLSP
light: not shown
B2: IL6R-BP498/IL6R-L (antibody, human IgG1, kappa)
heavy: B1 heavy with E235D, V266I, S269A, A332R, P398L
light: not shown
B3: IL6R-BP488/IL6R-L (antibody, human IgG1, kappa)
heavy: B1 heavy with E235D, V266I, S269A, Y298D, A332R
light: not shown
B4: IL6R-BP491/IL6R-L (antibody, human IgG1, kappa)
heavy: B1 heavy with V266I, S269A, Y298D, A332R
light: not shown
B5: IL6R-BP483/IL6R-L (antibody, human IgG1, kappa)
heavy: B1 heavy with E235D, V268L, S269A
light: not shown
B6: IL6R-BP496/IL6R-L (antibody, human IgG1, kappa)
heavy: B1 heavy with E235D, V266I, S269A, Y298D
light: not shown
B7: IL6R-BP494/IL6R-L (antibody, human IgG1, kappa)
heavy: B1 heavy with S269A, Y298D, A332R
light: not shown
B8: IL6R-BP492/IL6R-L (antibody, human IgG1, kappa)
heavy: B1 heavy with D239G, V266I, S269A
light: not shown
B9: IL6R-BP489/IL6R-L (antibody, human IgG1, kappa)
heavy: B1 heavy with E235D, V266I, S269A, Y298D, A332R, P398M
light: not shown
B10: IL6R-BP487/IL6R-L (antibody, human IgG1, kappa)
heavy: B1 heavy with E235D, V266I, S269A, A332R, P398M
light: not shown
B11: IL6R-BP269/IL6R-L (antibody, human IgG1, kappa)
heavy: B1 heavy with Y298D
light: not shown
B12: IL6R-BP497/IL6R-L (antibody, human IgG1, kappa)
heavy: B1 heavy with E235D, V266I, S269A, A329G, A332R
light: not shown
B13: IL6R-BP536/IL6R-L (antibody, human IgG1, kappa)
heavy: B1 heavy with E235D, V266I, Y298D, A329G, A332R, P398M
light: not shown
B14: IL6R-BP509/IL6R-L (antibody, human IgG1, kappa)
heavy: B1 heavy with E235D, V266I, S269A, E274D, Y298D
light: not shown
B15: IL6R-BP563/IL6R-L (antibody, human IgG1, kappa)
heavy: B1 heavy with E235D, E274D, Y298D, A332R
light: not shown
B16: IL6R-BP502/IL6R-L (antibody, human IgG1, kappa)
heavy: B1 heavy with E235D, V266I, S269A, Y298D, A329G, A332R
light: not shown
B17: IL6R-BP504/IL6R-L (antibody, human IgG1, kappa)
heavy: B1 heavy with E235D, V266I, S269A, E274P
light: not shown
B18: IL6R-BP503/IL6R-L (antibody, human IgG1, kappa)
heavy: B1 heavy with E235D, V266I, S269A, Y298D, A329G, A332R, P398M
light: not shown
B19: IL6R-BP565/IL6R-L (antibody, human IgG1, kappa)
heavy: B1 heavy with E235D, S269A, Y298D, A332R
light: not shown
B20: IL6R-BP505/IL6R-L (antibody, human IgG1, kappa)
heavy: B1 heavy with E235D, V266I, S269A, E274D
light: not shown
B21: IL6R-BP538/IL6R-L (antibody, human IgG1, kappa)
heavy: B1 heavy with V266I, A332R
light: not shown
B22: IL6R-BP540/IL6R-L (antibody, human IgG1, kappa)
heavy: B1 heavy with V266I, E274P, Y298D, A332R
light: not shown
B23: IL6R-BP551/IL6R-L (antibody, human IgG1, kappa)
heavy: B1 heavy with V266I, E274D, Y298D, A332R
light: not shown
B24: IL6R-BP508/IL6R-L (antibody, human IgG1, kappa)
heavy: B1 heavy with E235D, V266I, S269A, E274P, Y298D
light: not shown
B25: IL6R-BP511/IL6R-L (antibody, human IgG1, kappa)
heavy: B1 heavy with V266I, S269A, E274P, Y298D, A332R
light: not shown
B26: IL6R-BP552/IL6R-L (antibody, human IgG1, kappa)
heavy: B1 heavy with E235D, V266I, S269A, E274D, Y298D, A332R
light: not shown
B27: IL6R-BP556/IL6R-L (antibody, human IgG1, kappa)
heavy: B1 heavy with V266I, S269G, Y298D, A332R
light: not shown
B28: IL6R-BP561/IL6R-L (antibody, human IgG1, kappa)
heavy: B1 heavy with E235D, E270D, E274D, Y298D, A332R
light: not shown
B29: IL6R-BP535/IL6R-L (antibody, human IgG1, kappa)
heavy: B1 heavy with E235D, V266I, S269G, Y298D, A329G, A332R, P398M
light: not shown
B30: IL6R-BP532/IL6R-L (antibody, human IgG1, kappa)
heavy: B1 heavy with E235D, V266I, Y298D, A332R, P398M
light: not shown
B31: IL6R-BP531/IL6R-L (antibody, human IgG1, kappa)
heavy: B1 heavy with E235D, V266I, S269G, Y298D, A332R, P398M
light: not shown
B32: IL6R-BP555/IL6R-L (antibody, human IgG1, kappa)
heavy: B1 heavy with V266I, S269A, E274D, Y298D, A332R
light: not shown
B33: IL6R-BP534/IL6R-L (antibody, human IgG1, kappa)
heavy: B1 heavy with E235D, V266I, Y298D, A332R, P398L
light: not shown
B34: IL6R-BP553/IL6R-L (antibody, human IgG1, kappa)
heavy: B1 heavy with E235D, V266I, S269A, E274D, A332R
light: not shown
B35: IL6R-BP537/IL6R-L (antibody, human IgG1, kappa)
heavy: B1 heavy with V266I, S269G, A332R
light: not shown
B36: IL6R-BP554/IL6R-L (antibody, human IgG1, kappa)
heavy: B1 heavy with V266I, S269A, E274D, A332R
light: not shown

Target: T1, FcγRIIa type R extracellular domain …
Experiment: ratio of SPR KDs vs IL6R-B3/IL6R-L

| KD (IIaR) of parent polypeptide/KD (IIaR) of altered polypeptide | Binder |
| --- | --- |
| 0.5 | B1 |
| 21.7 | B2 |
| 14.8 | B3 |
| 9.3 | B4 |
| 0.8 | B5 |
| 2.3 | B6 |
| 4.3 | B7 |
| 1.2 | B8 |
| 25.7 | B9 |
| 28.3 | B10 |
| 0.5 | B11 |

Target: T2, FcγRIIb extracellular domain with …
Experiment: ratio of SPR KDs vs IL6R-B3/IL6R-L

| KD (IIb) of parent polypeptide/KD (IIb) of altered polypeptide | Binder |
| --- | --- |
| 25.8 | B1 |
| 1680 | B3 |
| 764 | B12 |
| 39.7 | B5 |
| 471 | B7 |
| 131 | B8 |
| 3100 | B9 |
| 2700 | B10 |
| 27.4 | B11 |

Target: T3, human FcγRIIa type R (Arg131) …
Experiment: SPR

| KD (IIaR) of parent polypeptide/KD (IIaR) of altered polypeptide | Binder |
| --- | --- |
| 13.9 | B13 |
| 2.1 | B14 |
| 2.4 | B15 |
| 10.1 | B16 |
| 2.4 | B17 |
| 19.4 | B18 |
| 4.8 | B19 |
| 2.6 | B20 |
| 5.4 | B21 |
| 5.2 | B22 |
| 4.5 | B23 |
| 2 | B24 |
| 6.3 | B25 |

Target: T4, human FcγRIIb extracellular domain with …
Experiment: SPR

| KD (IIb) of parent polypeptide/KD (IIb) of altered polypeptide | Binder |
| --- | --- |
| 1040 | B13 |
| 174 | B14 |
| 196 | B15 |
| 840 | B16 |
| 128 | B17 |
| 1810 | B18 |
| 565 | B19 |
| 145 | B20 |
| 587 | B21 |
| 541 | B22 |
| 482 | B23 |
| 149 | B24 |
| 891 | B25 |

Target: T2, FcγRIIb extracellular domain with …
Experiment: ratio of SPR KDs, FcγRIIaH over FcγRIIb, same variant

| KD (IIaH)/KD (IIb) | Binder |
| --- | --- |
| 375 | B1 |
| 564 | B2 |
| 236 | B12 |
| 724 | B4 |
| 201 | B6 |
| 821 | B7 |
| 870 | B9 |
| 730 | B10 |
| 637 | B11 |

Target: T2, FcγRIIb extracellular domain with …
Experiment: ratio of SPR KDs, FcγRIIaR over FcγRIIb, same variant

| KD (IIaR)/KD (IIb) | Binder |
| --- | --- |
| 17 | B1 |
| 30.8 | B2 |
| 40.1 | B3 |
| 21 | B12 |
| 38.8 | B4 |
| 16.8 | B5 |
| 25.5 | B6 |
| 19.6 | B11 |

Target: human FcγRIIIa type V (Val158) extracellular domain with C-terminal His tag (human, UniProt P08637 17-208)
Experiment: SPR

Chain of human FcγRIIIa type V (Val158) extracellular domain with C-terminal His tag (P08637 17-208 F176V): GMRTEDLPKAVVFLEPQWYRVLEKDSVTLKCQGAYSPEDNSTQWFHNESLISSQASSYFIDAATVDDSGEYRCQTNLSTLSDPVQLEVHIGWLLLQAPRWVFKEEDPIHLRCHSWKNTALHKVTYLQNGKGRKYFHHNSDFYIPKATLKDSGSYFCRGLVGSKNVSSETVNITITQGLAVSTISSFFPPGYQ

| Kd [µM] | Binder |
| --- | --- |
| 30 | B26 |
| 23 | B13 |
| 60 | B27 |
| 38 | B15 |
| 37 | B28 |
| 33 | B29 |
| 21 | B19 |
| 26 | B30 |
| 27 | B31 |
| 33 | B21 |
| 39 | B22 |
| 30 | B32 |
| 48 | B23 |
| 25 | B33 |
| 20 | B34 |
| 36 | B35 |
| 24 | B36 |
